Legend:
FGFR3-IIIb (human) [1] = assay: SPR
FGFR3-D2 (human) = FGFR3-D2 (human) (UniProt P22607); assay: SPR (Biacore)
[2] = biological target: FGFR3-IIIb (D2D3) (human); assay: SPR (Biacore)
FGFR3-IIIb (human) [3] = assay: SPR (Biacore T100), IgG captured by anti-human Fc, FGFR flowed
FGFR3-IIIb (human) [4] = assay: blocking ELISA: FGFR3-IIIb-Fc captured on an anti-human Fc plate, antibody titrated, FGF-1 (with heparin) is the blocked ligand, bound FGF-1 read as OD450

R3Mab (antibody), sequence (VH): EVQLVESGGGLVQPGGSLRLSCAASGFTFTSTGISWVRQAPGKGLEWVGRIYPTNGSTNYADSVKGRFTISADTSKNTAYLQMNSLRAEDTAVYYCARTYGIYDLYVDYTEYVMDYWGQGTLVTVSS
R3Mab (antibody), sequence (VL): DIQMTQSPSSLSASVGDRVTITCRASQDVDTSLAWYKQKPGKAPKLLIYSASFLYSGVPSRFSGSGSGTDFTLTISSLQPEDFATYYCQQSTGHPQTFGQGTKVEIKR
FGFR3-IIIb (human), sequence (chain, as listed by the source limits assumed): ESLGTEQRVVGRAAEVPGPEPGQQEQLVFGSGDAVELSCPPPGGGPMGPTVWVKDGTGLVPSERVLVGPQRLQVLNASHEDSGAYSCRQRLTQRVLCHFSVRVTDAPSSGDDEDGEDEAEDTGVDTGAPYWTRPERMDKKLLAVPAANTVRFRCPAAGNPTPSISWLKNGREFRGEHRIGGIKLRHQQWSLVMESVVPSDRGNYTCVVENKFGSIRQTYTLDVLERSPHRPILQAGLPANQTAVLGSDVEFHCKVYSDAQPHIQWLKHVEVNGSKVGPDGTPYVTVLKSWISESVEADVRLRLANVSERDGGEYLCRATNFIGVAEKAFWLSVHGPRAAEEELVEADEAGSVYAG
FGFR3-D2 (human), sequence (P22607 150-248 limits assumed): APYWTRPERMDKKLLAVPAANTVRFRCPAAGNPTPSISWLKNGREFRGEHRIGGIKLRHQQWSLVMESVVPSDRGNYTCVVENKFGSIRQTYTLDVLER
FGFR3-IIIb (D2D3) (human), sequence (chain, as listed by the source limits assumed): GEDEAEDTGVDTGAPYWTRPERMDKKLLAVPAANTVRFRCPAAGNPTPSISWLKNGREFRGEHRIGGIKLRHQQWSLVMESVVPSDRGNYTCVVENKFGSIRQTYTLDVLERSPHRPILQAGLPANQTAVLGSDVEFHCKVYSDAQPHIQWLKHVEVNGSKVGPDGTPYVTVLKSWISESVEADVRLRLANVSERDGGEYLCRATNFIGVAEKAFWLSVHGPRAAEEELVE

Q: Which results are given for R3Mab (antibody)?
A: Kd (FGFR3-IIIb (human) [1]): 240 pM; Kd (FGFR3-D2 (human)): 260 pM; Kd [2]: 240 pM; Kd (FGFR3-IIIb (human) [3]): 240 pM; IC50 (read off the curve) (FGFR3-IIIb (human) [4]): 1000 to 2000 pM
